Laboratory results published in the RNAGym collection of RNA variant scans (doi:10.7554/elife.80360).

B1: HDV Ribozyme (parent)
chain: GGCCGGCAUGGUCCCAGCCUCCUCGCUGGCGCCGGCUGGGCAACAUUCCGAGGGGACCGUCCCCUCGGUAAUGGCGAAUGGGACCCA

Variants of: B1
Assay: self-cleavage, relative activity (ratio to wild type); higher = more cleavage; co-transcriptional

Variant | self-cleavage
U60C G67A | 0.776
U60A C61A | 0.742
U60A C61U | 1.15
U60A A70U | 1.06
C58A U72A | 0.883
C58A U72G | 1.09
C58A U72C | 0.802
U60A C62A | 0.886
U60A C62U | 1.08
U60A A77C | 0.305
G59A U60C | 1.12
G59A U60G | 0.956
G59U U60A | 1.21
G59C A77C | 0.101
C58U G67A | 0.909
G59A U69C | 0.846
G59C G80U | 0.244
G59U A78C | 0.113
G59U A78U | 0.285
U60C U79C | 0.326
C58G A78U | 0.277

Variant | self-cleavage
C58G A78G | 0.723
G59C G76C | 1.19
G59C G76A | 0.767
U60C U69G | 0.95
G59A A87G | 1.04
G59A A87C | 0.974
U60C A83U | 0.653
G59C A78C | 0.179
G59C A78G | 0.778
G59A C61G | 1.07
G59A C61U | 1.11
U60C G74U | 0.348
U60C G74A | 0.591
C58A G76C | 1.1
C58A G76U | 1.05
C58U C85G | 1.07
C58U C85U | 0.945
U60G A77U | 0.237
U60G A77C | 0.227
G59A A70G | 1.2
G59A A70U | 0.941

Variant | self-cleavage
C58U A71U | 1.16
G59U C86A | 0.855
G59U C86G | 0.975
U60C G81C | 0.291
C58U C61U | 0.954
C58U C61A | 1.21
U60G C66U | 1.08
C58G C86U | 1.25
G59U G67C | 0.963
U60A C63A | 0.849
U60A C63U | 0.972
U60A C84U | 0.793
U60A C84A | 0.911
U60C U65G | 0.944
U60C U65C | 1.01
C58U A70U | 1.29
C58U A70C | 0.831
C58U A70G | 1.01
G59C G74A | 0.635
G59C G74C | 0.0678
U60G C62G | 0.703

Variant | self-cleavage
U60G C62A | 0.886
G59U G82C | 0.228
G59U G82A | 0.338
C58U C66A | 1.22
C58U C66U | 0.911
C58G C66U | 1.01
C58A G59C | 0.904
C58A G59A | 1.1
U60C C75G | 0.128
U60C C75A | 0.237
C58G G80U | 0.0903
G59C C64G | 0.892
G59C C64A | 0.946
C58U C62U | 0.867
C58U C62A | 0.969
C58G C63G | 0.91
U60A G73C | 0.532
U60A G73A | 0.751
U60A U69G | 1.01
U60A U69A | 0.793
